Reference: US20240181007A1, “COMPOSITIONS AND METHODS FOR TREATING PULMONARY HYPERTENSION” (Acceleron Pharma Inc., priority 2021, published 2024)

Legend:
GDF11 [1] = target: T1, GDF11 (UniProt O95390 299-407); experiment: cell-based or functional assay
T1 construct: also called Growth and differentiation factor-11; BMP11
T1 sequence (looked up): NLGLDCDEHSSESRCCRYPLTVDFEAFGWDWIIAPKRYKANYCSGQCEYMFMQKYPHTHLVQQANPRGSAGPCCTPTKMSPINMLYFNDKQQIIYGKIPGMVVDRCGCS

activin A [2] = target: T2, activin A (UniProt P08476 311-426); experiment: cell-based or functional assay
T2 construct: Soluble ligand injected in SPR or added in the reporter assay
T2 sequence (looked up): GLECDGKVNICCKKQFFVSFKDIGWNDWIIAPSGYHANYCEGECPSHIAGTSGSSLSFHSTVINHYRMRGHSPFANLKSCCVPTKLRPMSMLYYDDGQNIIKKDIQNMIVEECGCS

BMP9 [3] = target: T3, BMP9 (UniProt Q9UK05 320-429); experiment: cell-based or functional assay
T3 sequence (looked up): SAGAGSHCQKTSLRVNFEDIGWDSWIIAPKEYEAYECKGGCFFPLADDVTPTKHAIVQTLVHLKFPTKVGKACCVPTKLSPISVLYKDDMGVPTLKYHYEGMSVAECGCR

BMP10 = target: T4, BMP10 (Homo sapiens, UniProt O95393); experiment: Biacore-based binding assay (surface plasmon resonance), BMP10
T4 sequence (O95393 317-424): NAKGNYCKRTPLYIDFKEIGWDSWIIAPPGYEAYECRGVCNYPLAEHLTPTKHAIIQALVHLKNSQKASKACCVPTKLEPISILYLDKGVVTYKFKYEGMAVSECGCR
Description: (§1) To determine ligand binding profiles of variant ActRIIB-Fc homodimers, a Biacore™-based binding assay was used to compare ligand binding kinetics of certain variant ActRIIB-Fc polypeptides. ActRIIB-Fc polypeptides to be tested were independently captured onto the system using an anti-Fc antibody. Ligands were then injected and allowed to flow over the captured receptor protein. ActRIIB-G1Fc was used as the control polypeptide.
(§2) A Biacore™-based binding assay was used to compare the ligand binding kinetics of an ActRIIB-Fc:ActRIIB(L79E)-Fc heterodimer with those of unmodified ActRIIB-Fc homodimer. Fusion proteins were captured onto the system using an anti-Fc antibody. Ligands were then injected and allowed to flow over the captured receptor protein at 37° C. Results are summarized in the table below, in which ligand off-rates (kd) most indicative of effective ligand traps are denoted in bold.

BMP9 [4] = target: T5, BMP9 (Homo sapiens, UniProt Q9UK05); experiment: Biacore-based binding assay (surface plasmon resonance), BMP9
T5 sequence (Q9UK05 320-429): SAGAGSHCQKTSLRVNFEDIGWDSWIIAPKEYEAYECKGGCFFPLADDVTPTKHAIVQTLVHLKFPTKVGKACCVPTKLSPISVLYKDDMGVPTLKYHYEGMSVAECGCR
Description: as §1
as §1, with “protein.” for “protein. ActRIIB-G1Fc was used as the control polypeptide.”
as §2

Activin A [5] = target: T6, Activin A (Homo sapiens, UniProt P08476); experiment: Biacore-based binding assay (surface plasmon resonance), activin A
T6 sequence (P08476 311-426): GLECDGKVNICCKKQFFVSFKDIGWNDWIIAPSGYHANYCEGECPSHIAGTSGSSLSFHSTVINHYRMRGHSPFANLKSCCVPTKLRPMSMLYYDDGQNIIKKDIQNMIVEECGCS
Description: as §1
as §1, with “protein.” for “protein. ActRIIB-G1Fc was used as the control polypeptide.”
as §2

Activin B = target: T7, Activin B (Homo sapiens, UniProt P09529); experiment: Biacore-based binding assay (surface plasmon resonance), activin B
T7 sequence (P09529 293-407): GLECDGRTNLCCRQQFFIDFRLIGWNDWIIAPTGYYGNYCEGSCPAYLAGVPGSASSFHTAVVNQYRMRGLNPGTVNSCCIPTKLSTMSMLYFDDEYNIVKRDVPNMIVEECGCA
Description: as §1, §2

BMP6 = target: T8, BMP6 (Homo sapiens, UniProt P22004); experiment: Biacore-based binding assay (surface plasmon resonance), BMP6; details: 37° C., capture by anti-Fc antibody
T8 sequence (P22004 375-513): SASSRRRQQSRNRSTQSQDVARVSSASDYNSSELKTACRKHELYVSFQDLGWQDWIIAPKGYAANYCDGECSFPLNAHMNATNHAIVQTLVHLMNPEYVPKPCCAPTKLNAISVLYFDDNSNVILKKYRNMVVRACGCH
Description: as §2

GDF11 [6] = target: T9, GDF11 (Homo sapiens, UniProt O95390); experiment: Biacore-based binding assay (surface plasmon resonance), GDF11; details: 37° C., capture by anti-Fc antibody
T9 sequence (O95390 299-407): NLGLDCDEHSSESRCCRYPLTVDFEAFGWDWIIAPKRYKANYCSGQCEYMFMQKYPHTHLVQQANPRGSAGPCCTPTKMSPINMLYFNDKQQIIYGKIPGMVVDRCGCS
Description: as §1
as §1, with “protein.” for “protein. ActRIIB-G1Fc was used as the control polypeptide.”
as §2

GDF3 = target: T10, GDF3 (Homo sapiens, UniProt Q9NR23); experiment: Biacore-based binding assay (surface plasmon resonance), GDF3; details: 37° C., capture by anti-Fc antibody
T10 sequence (Q9NR23 251-364): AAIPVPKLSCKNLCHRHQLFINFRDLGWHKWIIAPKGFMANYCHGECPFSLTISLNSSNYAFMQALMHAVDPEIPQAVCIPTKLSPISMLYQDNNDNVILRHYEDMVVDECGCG
Description: as §2

GDF8 = target: T11, GDF8 (Homo sapiens, UniProt O14793); experiment: Biacore-based binding assay (surface plasmon resonance), GDF8; details: 37° C., capture by anti-Fc antibody
T11 sequence (O14793 267-375): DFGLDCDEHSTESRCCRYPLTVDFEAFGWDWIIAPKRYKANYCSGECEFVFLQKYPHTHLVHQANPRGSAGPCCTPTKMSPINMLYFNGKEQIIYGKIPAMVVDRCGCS
Description: as §1, §2

[7] = SPR 37° C., compared to ActRIIB-G1Fc / ActRIIB-Fc homodimer
[8] = 37° C., capture by anti-Fc antibody
[9] = 37° C., capture by anti-Fc antibody, Transient*: indeterminate due to transient nature of interaction

For “E50K (homodimeric ActRIIB-Fc construct) (Fc fusion)”, the IC50 (ng/ml), A204 CAGA12 luciferase reporter assay (GDF11 [1]) was 180 ng/mL, the IC50 (ng/ml), A204 CAGA12 luciferase reporter assay (activin A [2]) was 132 ng/mL and the IC50 (ng/ml), A204 CAGA12 luciferase reporter assay (BMP9 [3]) was 721 ng/mL.

“A24N (homodimeric ActRIIB-Fc construct) (Fc fusion)” gave an IC50 (ng/ml), A204 CAGA12 luciferase reporter assay (GDF11 [1]) of 99 ng/mL, an IC50 (ng/ml), A204 CAGA12 luciferase reporter assay (activin A [2]) of 128 ng/mL and an IC50 (ng/ml), A204 CAGA12 luciferase reporter assay (BMP9 [3]) of 409 ng/mL.

In the case of “K55D (homodimeric ActRIIB-Fc construct) (Fc fusion)”, the IC50 (ng/ml), A204 CAGA12 luciferase reporter assay (GDF11 [1]) is reported as 365 ng/mL, the IC50 (ng/ml), A204 CAGA12 luciferase reporter assay (activin A [2]) is reported as 396 ng/mL and the IC50 (ng/ml), A204 CAGA12 luciferase reporter assay (BMP9 [3]) is reported as 5500 ng/mL.

In the case of “L79H: homodimeric ActRIIB-G1Fc fusion with L79H substitution; mature SEQ ID NO: 344”, the “BMP10 binding compared to ActRIIB-G1Fc (in words)” value (BMP10; SPR 37° C., FIGS. 8A and 8B) is reported as “decrease in BMP10 binding”, the “binding to BMP9 compared to unmodified ActRIIB-Fc (in words)” value (BMP9 [4]; [7]) is reported as “decrease in binding to BMP9” and the “activin A binding compared to ActRIIB-G1Fc (in words)” value (Activin A [5]; SPR 37° C., FIGS. 8A and 8B) is reported as “significant decrease”. For the same substance, the “affinity for activin B compared to unmodified ActRIIB-Fc (in words)” value (Activin B; [7]) was “relatively high affinity for activin B”.

In the case of “ActRIIB-Fc homodimer: unmodified ActRIIB-Fc homodimer, comparator of the heterodimer in Table 6”, the “ka BMP6” value (BMP6) is reported as 1.3e+08 M⁻¹ s⁻¹, the “kd BMP6” value (BMP6) is reported as 0.0074 s⁻¹ and the “ka GDF11” value (GDF11 [6]) is reported as 4.1e+07 M⁻¹ s⁻¹. The “kd GDF11” value (GDF11 [6]) was 0.00017 s⁻¹, the “ka BMP10” value (BMP10; [8]) was 5.1e+07 M⁻¹ s⁻¹ and the “kd BMP10” value (BMP10; [8]) was 0.0002 s⁻¹. The “ka BMP9” value (BMP9 [4]; [9]) was 5e+06 M⁻¹ s⁻¹, the “kd BMP9” value (BMP9 [4]; [9]) was 0.0013 s⁻¹ and the “ka GDF3” value (GDF3) was 1.4e+06 M⁻¹ s⁻¹. The “kd GDF3” value (GDF3) was 0.0022 s⁻¹, the “ka Activin A” value (Activin A [5]; [8]) was 7.4e+06 M⁻¹ s⁻¹ and the “kd Activin A” value (Activin A [5]; [8]) was 0.00019 s⁻¹. The “ka GDF8” value (GDF8) was 3.8e+06 M⁻¹ s⁻¹, the “kd GDF8” value (GDF8) was 0.00026 s⁻¹ and the “ka Activin B” value (Activin B; [8]) was 8.1e+06 M⁻¹ s⁻¹. The “kd Activin B” value (Activin B; [8]) was 6.6e-05 s⁻¹.

In the case of “K55R (homodimeric ActRIIB-Fc construct) (Fc fusion)”, the IC50 (ng/ml), A204 CAGA12 luciferase reporter assay (GDF11 [1]) is reported as 318 ng/mL, the IC50 (ng/ml), A204 CAGA12 luciferase reporter assay (activin A [2]) is reported as 206 ng/mL and the IC50 (ng/ml), A204 CAGA12 luciferase reporter assay (BMP9 [3]) is reported as 777 ng/mL.
